Experimental data taken from the nanobody polyreactivity screen of Harvey et al. (2022).

test: yeast display, Sf9 membrane polyspecificity reagent, FACS + sequencing; frameworks hold sequencing errors
Method in brief: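 Synthetic nanobody libraries on Saccharomyces cerevisiae BJ5465 were galactose-induced for 36–48 hours, stained 1 hour at 4 °C with 10% biotinylated, detergent-solubilized Sf9 membrane reagent and enriched on streptavidin microbeads. FACS then separated cells into low and high (top ~1%) gates by anti-HA (expression) and streptavidin (reagent binding) fluorescence. Genes were colony-PCR amplified, MiSeq 2 × 250 sequenced and CDR-length filtered. A clone's polyreactivity label is that of its gate of origin.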

| Sequence | polyreactivity (PSR sort gate) |
| --- | --- |
| QVQLVESGGGLVQAGGSLRLSCAASGRIFGAYAMGWYRQAPGKERELVAAITSRGGNTYYADSVKGRFTISRDNAKNTVYLQMNSLKPEDTAVYYCAARHDKLRQYYVGQSAFDYWGQGTQVTVSS | low polyreactivity |
| QVQLVESGGGLVQAGGSLRLSCAASGIIFTGNAMGWYIQAPGKERELVAAITSGDTTNYADSVKGRFTISRDNAKNTVYLQMNSLKPEDTAVYYCAKELQVRQAGDYWGQGTQVTVSS | low polyreactivity |
| QVHLVESGGGLVQAGGSLRLICAASGRIFIVYAMGWYRQAPGKERELVAVITGGGSTNYADSVKGRFTISRDNAKNSVYLQMNSLKPEDTAVYYCATEGYGHGGETVGGVYSDLGYWGQGTQVTVSS | low polyreactivity |
| QVQLVESGGGLVQAGGSLRLSCAASGRIFNGYAMGWYRQAPGKERELVAAISKSGTRTYYADSVKGRFTISRDNAKNTVYLQMTSLKPEDTAVYYCNARVYRYDTYNEYYYWGQGTQVTVSS | high polyreactivity |
| QVQLVESGGGLVQAGGSLRLSCAASGSIFYRNAMGWYRQAPGKERELVAAISSSVSSTYYADSVKGRFTISRDNAKNTVYLQMNSLKPEDTAVYYCAARRVQRGGDYVYRYLYDYWGQGTQVTVSS | low polyreactivity |
| QVQLVESGGGLVQAGGSLRLSCAASGFIFYDNAMGWYRQAPGKERELVAAIDWSGDSTYYADSVKGRFTISRDNAKNTVYLQMNSLKPEDTAVYYCAADSQDPGDYYLFDYWGQGTQVTVSS | low polyreactivity |
| QVQLVESGGGLVQAGGSLRLSCAASGLTFFAYPMGWYRQAPGKERELVAVITSSGGSTNYADSVKGRFTISRDTPKNTVYLQMNSLKPEDTAVYYCAAYIRYTLPTSRGFGYWGQGTQVTVSS | high polyreactivity |
| QVQLVESGGGLVQAGGSLRLSCAASGRIFRYYAMGWYRQATGKQRELVAAISSGVGNTYYADSVKGRFTISRDNAKNTVYLQMNSLKPEDTAVYYCNAKWRKFGTVRYDYWGQGTQVTVSS | high polyreactivity |
| QVQLVETGGGLVQAGGSLRLSCAASGRTYAFYAMGWYRQAPGKERELVASISSSGDRPYYADSVKGRFTISRDNAKNTVFLQLNSLKPEDTAVYYCAARWRYTYYYWGQGTQVTVSS | high polyreactivity |
| QVQLVESGGGLVQAGGSLRLSCAASGFIFVFYAMGWYRQAPGKERELVAAITWSGGGTYYADSVKGRFTISRDNAKNTVYLQMNSLKPEDTAVYYCNAEEPQYYYVLDKLYDYWGQGTQVTVSS | low polyreactivity |
| QVQLVESGGGLVQAGGSLRLSCAASGRIFRYYAMGWYRQAPGKERELVAAISVSGGSTYYADSVKGRFTISRDNAKNTVYLKMNSLKPEDTAVYYCAARIKTYSKRYYWGQATQVTVSS | high polyreactivity |
| QVQLVESGGGLVQAGGSLRLSCAASLRIFYSNAMGWSRQAPGKERELVAAISSSGGITYYADSVKGRFTISRDNAKNTVYLQMNSLKPEDTAVYYCAVDSRHYIRAFDHWGQGTQVTVSS | low polyreactivity |
| QVQLVESGGGLVQAGGSLRLSCAASGSIFIYYAMGWYRQAPGKERELVAAISFSGARTYYADSVKGRFTISRDNAKNTVFLQMNSLKPEDTAVYYCNVEIGTGDYDYWGQGTQVTVSS | low polyreactivity |
| QVQLVESGGGLVQAGGSLRLSCAASGSTFPTNAMGWYRQAPGKERELVATITSTGSTKYADSVKGRFTISRDNAKNTVYLQMNSLKPEDTAVYYCAADEYAYASRFYWALIHDYWGQGTQVTVSS | low polyreactivity |
| QVQLVESGGGLVQAGCSLRLSCAASGSTFPYNTMGWYRQAPGKERELVAAITSSAGSTYYADSVKGRFTISRDNAKNTVYLQMNSLKPDDTAVYYCAADYIVWKGSNSYYYAGYYYWGQGTQVTVSS | low polyreactivity |
| QVQLVESGGVLVQAGGSLRLSCAASGRIFRSYALGWYRQAPGKETEFVAAISSGGSTNYADSVKGRFTISRDNAKNTVYLQMNSLKREDTAVYYCAADLWAYTWYWHSDYWGQGTQVTVSS | low polyreactivity |
